Experimental data from the domain aggregation screens of Martell et al. (2025).

Assay: soluble fraction after stress (log2 fold change); higher = more stays soluble; pooled small domains, quantitative proteomics
Conditions: stress: 50 degC
How it was run: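 Each library was heated to 50°C as a stress step. The libraries, made up of small protein domains, were pooled and analysed at high throughput by quantitative proteomics. The reported value is the base-two logarithm of the fold change in each protein's soluble amount after stress, taken as a measure of aggregation propensity. The higher the value, the more protein stays in solution.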

| Sequence | soluble fraction (log2) |
| --- | --- |
| HMQRVSDKVAAQLRVLVQEQQLKPGDRLPAERALAVQLGVSRTALREAIAQLASQGLLTARVGGGTYVAEP | -0.307 |
| HMDNFDVVLTSPGDQKVQVIKAVRSITGLGLKEAKDLVDGAPNTVKEGVKKLDAEEMLKQLTEAGATGEL | 0.296 |
| HMALSETIYRLRTEHGLSQGDLAAELDVSRQSISKWETGSSVPELDKLVAMSRLFGVSLDELVLGE | -0.63 |
| HMIAVLEEGSHFRAVNDVTGKPFGPEMVIKNGQVTAVGKTISTKPKNLLGKKEGTKFVISGKQYVIKDI | -0.00494 |
| HMEDISLYKILRAHSIDNLKLSQWIIDSLKTKFSTIGELQDAKIDDIRMYRIQDVRIEKIKNAVTEYMA | -0.926 |
| HMAEVAFEEQNIEQISNLLLRIQAIFAELMTALDKEKGGEIADNLERLYVFFLEKLGDANVRKDPAP | 0.00759 |
| HMPELFLFNPDTASAATFQALGFSARQAGVLIHFREALGGRFGSVEQFSKSYVVDSATLERLRPYMVF | -3.63 |
| HMQTRIDISDAVLQWVVRKTQFAALPPKAAAHLTKWVRGEKKPTFNQLEEVSKATGIPLGYFFLQQPPHE | -0.776 |
| HMKQQTRAELLDEFAKAHAERGLYFNRDYEQGEIQALQPDKAREYLQSALEARTERQQASEQDR | 0.274 |
| HMSSSTFVGRVAVITIGEARQNSPAEARFKDRHGTTHYVMVEPMEDVVFKQGDKVLLVESAGATFKVIEPA | -0.585 |
| HMTLNQEELMGKTEAILFAGGEPVSLDRIAQVLGVRTPVIDSIVSALQEKYNTPTSGIQLMRL | -0.143 |
| HMRSNIYTEEKLWTVLQDFFQENRYLTISLMRMKFGLSRHMAQKWIDHFIAKGLLVKDGTPRSPIYFLND | -2.3 |
| HMGIYFIIAAKNQENNIEEFIRTTLFRIVYGKEESINNITLVDLKSKDNTKNIMEEIARENENVKV | -0.335 |
| HMGTGQTNEKLAVLTNIQKTQEQILLTLGAKNPLVNLKQYRETLAKILSLSGYKNSNEFFLDPM | -0.0851 |
| HMPAYYQKEAVLDGRASVFAYERDPSSWYFKQLIPGTKKYRTKKIQGATTLEQAKSQALDIALGLRDEP | 0.0201 |
| HMTLSAPMPGTVLKIHVKEGQRVRKGQTLVVLEAMKMEHRIQAPKAGEVTNLHFSEGDRVDMGEILVEIG | 0.0894 |
| HMQVPDLYRTLGVGRDATTEAIEAAYVGWQARLSAGEPISTQEWERLRYAHEVLSNPQRRSLYDSLVAET | 0.0709 |
| HMQNEIQQLAIDLIARAHKSGASDIHIVDTGTYTRIKFRVLGLLREDSQMEAETGRQMISTIYGILG | -0.135 |
| HMVNAVKFAIEKMPYKYSSLLTLKYVMGYSGKEIAEITGLSETNVRQQLLKGRKLLESMLEE | -2.43 |
| HMSTMNRLPRHEQILKLVRANGFMPIEELARLLDVTPQTIRRDINTLSEENLLRRFHGGAALGPSVE | -0.0842 |
| HMSVVKPIYIGMMTSEVEAIMGKPFEVITNNNSKNNQLWIYKYQDKRSVMLTFTNYKLIKIE | -0.819 |
| HMSRSSQMVNFIRLLSQEKKVSVNSIFSSSVQLSDGIIVKINDFYYRVNLSLDQKTYSLVEVS | -0.486 |
| HMMTLEESYKLLQVSHNASDIEITKAFKKLALLYHPDKNPSNIDWANKAMASINVAYNTIITHRFKEK | -0.628 |
| HMDYKLDVNFPEMYLEQIPAEKRAALIQILEQDPRPSYQKDPVRIYGMSYAGMEIHFRVDKETLYVTEVER | -0.996 |
| HMDQPVIDVREFGARGDGKQDDAPAIQAAVRLAEQLGGGRVVVPATREFYLLGSTIRIRGHHVTLTGPGAR | 0.0155 |
| HMQKRDQKKRANMLDSLKVGTRIVTIGGIFGEIAKIKDDRIRIKVAEDVEIWIRRAAVGTVIT | -0.207 |
| HMEIYELTDQEQRVLEFIGEGMTNREIAKNMFLAEKTVKNYVSSLLRKLGLERRTQAAAMAVRLSV | -0.0994 |
| HMELTDRQKQIIEIVKKQQPISGEKIASILGFARATLRPDFSLLTMSGILQAKPKVGYLINEE | -0.152 |
| HMRASQGRNELILSLLRGHELSILELLEGLEKQGVRVARPTLTKDLNELVSRGSVEATAPPRSKNRTYRIP | -0.612 |
| HMFPSLSPEEQAVVDVLQRNNDLQINMLSVQSGLTISRLTALLFQLEMKGVIKPLAGGMYHLL | 0.0206 |
